# Results published in patent US6066485A, “Growth factor inducible serine/threonine phosphatase fin13” (New York University, priority 1997, dated 2000).
# B1: his-FIN13: purified full length FIN13 expressed in bacteria as fusion protein with N- and C-terminal his-tags (protein)
# chain: MTIEELLTRYGQNCQKVPPHTKSGIGTGDEPGPQGLNGEAGPEDPSRETPSQENGPTAKGHTGFSSNSEHGTEAGQISEPGTATGEAGPSCSSASDKLPRVAKSKFFEDSEDESDEVEEEEDDSEECSEDEDGYSSEEAENEEDEDDTEEAEEDDDEEMMVPGMEGKEEPGSDSGTTAVVALIRGKQLIVANAGDSRCVVSEAGKALDMSYDHKPEDEVELARIKNAGGKVTMDGRVNGGLNLSRAIGDHFYKRNKNLPPQEQMISALPDIKVLTLTDDHEFMVIACDGIWNVMSSQEVVDFIQSKISQRDENGELRLLSSIVEELLDQCLAPDTSGDGTGCDNMTCIIICFKPRNTVELQAESGKRKLEEALSTEGAEDTGNSDKKKAKRD
# B2: FIN13: novel FGF-inducible type 2C serine/threonine phosphatase (protein)
# chain: B1 chain
# B3: his-FIN13-cat: catalytic domain of FIN13 (amino acids 195 to 392) with N- and C-terminal poly(6)-histidine tags (protein)
# chain: DSRCVVSEAGKALDMSYDHKPEDEVELARIKNAGGKVTMDGRVNGGLNLSRAIGDHFYKRNKNLPPQEQMISALPDIKVLTLTDDHEFMVIACDGIWNVMSSQEVVDFIQSKISQRDENGELRLLSSIVEELLDQCLAPDTSGDGTGCDNMTCIIICFKPRNTVELQAESGKRKLEEALSTEGAEDTGNSDKKKAKRD
# Tests used:
# his-FIN13 = target: T1, his-FIN13 (Mus musculus, UniProt Q61074); assay: Phosphatase assay of bacterially expressed his-FIN13 with 32P-labelled casein; format: biochemical; details: for effect on his-FIN13 phosphatase activity: 20 μg/ml, 20 mg/ml in FIG. 5 legend
# T1 construct: Purified his-tagged full length FIN13 (his-FIN13); made in house; host or cells: E. coli BL21(DE3)
# T1 sequence (Q61074 151-542 limits assumed): B1 chain
# Experimental: FIG. 5. Phosphatase activity of bacterially expressed FIN13. Purified his-tagged full length FIN13 (his-FIN13) or his-tagged catalytic domain FIN13 (his-FIN13-cat) were examined for their ability to dephosphorylate ^32 P-labelled cascin in vitro as described in the Materials and Methods. Phosphatase assays were performed in the absence of his-FIN13 (No FIN13; open bar) or with his-FIN13 incubated in the presence of 10 mM of the indicated divalent cation (MgCl2, ZnCl2, CaCl2 or MnCl2)(solid bars) or in the presence of the indicated mM concentrations of MnCl2 (half-tone bars). +EDTA: indicates his-FIN13 incubated in the presence of 10 mM EDTA and 10 mM MnCl2. his-FIN13-cat was incubated in the presence of the indicated mM concentrations of MnCl2 (cross-hatched bars). his-FIN13 was also incubated in the presence of 1 μM okadaic acid (OA), 20 mg/ml poly L-lysine (PL-L), 20 mg/ml protamine sulfate (PS). All incubations were performed for 1 h at 30° C.
# Preparation of ^32 P-labelled casein. Casein (10 mg)(Sigma) was labelled with ^32 P using 10U of the catalytic subunit of cAMP dependent protein kinase (Sigma) in 50 mM Tris-HCl pH 7.0, 0.1 mM EGTA, 10 mM Mg-acetate, 0.1% β-mercaptoethanol, and 0.5 mCi of ^32 PγATP for 12 h at 30° C. The reaction mixture was then precipitated at 4° C. in 20% TCA. Labelled casein was recovered by centrifugation, the pellet washed 5 times in 100% acetone and resuspended in 50 mM Tris-HCl, 0.1 mM EGTA.
# Phosphatase assay. The phosphatase activity of purified FIN13 expressed in bacteria as a fusion protein with N- and C-terminal his-tags was assessed in vitro using ^32 P-labelled casein as a substrate. For preparation of his-FIN13 and his-FIN13-cat from bacteria, the BL21(DE3) strain transformed with pEThis-FIN13 or pEThis-FIN13-cat were induced with 0.2 mM IPTG for 2 h following which the cells were recovered by centrifugation, resuspended in column buffer (50 mM sodium phosphate, pH 8.0, 300 mM NaCl, 1 mM PMSF) and frozen overnight at -70° C. The bacteria were then lysed by sonication at 4° C. and the extract cleared by centrifugation. The supernatant was then adsorbed to Ni-NTA-agarose (Qiagen) at 4° C. for 1 h. The resin was then washed extensively in column buffer without PMSF and his-FIN13 or his-FIN13-cat were eluted using 25 mM Tris-HCl pH 7.2, 100 mM NaCl containing […] imidazole (Sigma). In addition, the phosphatase activity of FIN13 expressed in HeLa cells was also determined in an immune complex using ^32 P-labelled casein as a substrate. For preparation of immune complexes of myc-FIN13, HeLa cells were transfected with […] of pRKmyc-FIN13 or pRK5. Cells were lysed 24 h after transfection in lysis buffer (10 mM Na-phosphate pH 7.4, 100 mM NaCl, 1% TRITON X-100, 10 mM EDTA) also containing a protease/phosphatase inhibitor cocktail (1 mM PMSF, 1 μg/ml pepstatin, 1 μg/ml leupeptin, 1 μg/ml aprotinin, 10 mM Na-orthovanadate, 80 mM NaF, 80 mM β-glycerolphosphate, 10 μM okadaic acid). Cleared lysates (100 μg total protein) were immunoprecipitated with anti-myc monoclonal antibody (9E10) adsorbed to 30 μl protein G sepharose (Zymed) or anti-FIN13 antiserum adsorbed to 30 μl protein A sepharose (Zymed) for 1.5 h at 4° C. The anti-FIN13 polyclonal antiserum (630) was generated against the full length his-FIN13 expressed and purified from bacteria. The IPs were then washed 5 times with lysis buffer, once with 10 mM Tris-HCl pH 7.0, 100 mM NaCl and 5 mM MnCl2, and twice with phosphatase reaction buffer (10 mM Tris-HCl pH 7.0, 0.1 mM EGTA, 10 mM DTT and 10 mM MnCl2) containing 1 μM okadaic acid. Purified his-FIN13, his-FIN13-cat or myc-lPs were then examined for phosphatase activity by incubating the indicated FIN13 preparation in the presence of phosphatase reaction buffer containing ^32 P-labelled casein (1×10^5 cpm; approx. 1 μl) at 30° C. for up to 2 h.
# HeLa cells = assay: BrdU incorporation in transiently transfected HeLa cells; format: cell-based, human; details: summary of Table 1
# Experimental: Bromodeoxyuridine (BrdU) incorporation. The effect of FIN13 expression on BrdU incorporation was determined in HeLa cells growing asynchronously in DMEM/10% calf serum. Cells were plated at 10000 cells/ml on coverslips and after 24 h were transfected with 10 μg of either pRKERK2-HA, CMVβ or pRKFIN13. Twenty four hours after transfection the medium was changed and the cells were incubated with BrdU labelling reagent (10 μl) for a further 12 h according to the suppliers instructions (Boehringer Mannheim). Following labelling, coverslips were rinsed in PBS and cells were fixed in 70% ethanol-50 mM glycine (pH 2.0) overnight at -20° C. Incorporated BrdU was detected with FITC-conjugated anti-BrdU (Boehringer Mannheim) by immunocytochemistry (see below).
# Immunocytocliemistry. Fixed cells on coverslips were washed twice in PBS and twice in PBS/0.02% BSA followed by incubation with the primary antibody diluted in PBS/0.02% BSA for 1 hour at 37° C. (anti-FIN13 polyclonal serum at 1:200, anti-HA monoclonal antibody 12CA5 acities at 1:200 or anti-β-galactosidase GAL40 monoclonal antibody at 1:500). After washing, coverslips were incubated in secondary antibody as above (anti-rabbit Texas red at 1:200, anti-mouse Texas red at 1:200)(Molecular Probes). The coverslips were washed again and then incubated in […] (1:500) FITC-conjugated anti-BrdU (Boehringer Mannheim) as above. Where noted, cells were also stained with 1 μg/ml bis-benzimide (Hoechst #33342) in PBS. Coverslips were mounted and examined using a fluorescence microscope.
# Cells Transiently Transfected with FIN13 are Blocked in the Cell Cycle. We have utilized a transient transfection approach to examine the effect of FIN13 expression on DNA synthesis and cell cycle progression. […] ERK2 is expressed as a nuclear protein in HeLa cells in the presence of 10% serum (Chen et al., Mol. Cell. Biol. 12:915-927 (1992)) while β-galactosidase is predominantly cytoplasmic. […] BrdU incorporation was detected using FITC-conjugated anti-BrdU antibodies.
molecule,measurement,setting,value
poly L-lysine,effect on his-FIN13 phosphatase activity,his-FIN13,Neither poly L-lysine nor protamine sulfate significantly altered
"β-galactosidase: control protein, predominantly cytoplasmic",cells expressing the protein observed to incorporate BrdU,HeLa cells,greater than 70%
protamine sulfate,effect on his-FIN13 phosphatase activity,his-FIN13,Neither poly L-lysine nor protamine sulfate significantly altered
ERK2-HA: control nuclear protein ERK2 expressed in HeLa cells,cells expressing the protein observed to incorporate BrdU,HeLa cells,greater than 70%
B1,MnCl2 concentration giving maximal phosphatase activity,his-FIN13; 32P-labelled casein substrate,10 mM
same,phosphatase activity with other divalent cations,"his-FIN13; in the presence of MgCl2, ZnCl2 or CaCl2 (10 mM)",No activity
same,dephosphorylation of 32P-labelled casein,"his-FIN13; in the presence of Mn2+ ions, 30° C.",able to dephosphorylate
B2,cells expressing the protein observed to incorporate BrdU,HeLa cells,10-17%
B3,phosphatase activity of catalytic domain,his-FIN13; 10 mM MnCl2,poor phosphatase activity
same,phosphatase activity of catalytic domain,his-FIN13; 400 mM MnCl2,detectable
